Test results reported in PMC10849712 (bioRxiv, 2024).

T1: single CIDRα1.4 domain of HB3VAR03 PfEMP1 (crystallised with C7 Fab) (Plasmodium falciparum HB3 (HB3VAR03), strain)
T1 chain: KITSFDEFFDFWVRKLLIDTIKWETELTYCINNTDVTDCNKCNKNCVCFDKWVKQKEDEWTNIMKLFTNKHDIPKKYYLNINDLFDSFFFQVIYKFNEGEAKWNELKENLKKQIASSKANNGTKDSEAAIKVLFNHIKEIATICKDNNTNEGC

T2: three-domain protein of HB3VAR03 PfEMP1 (NTS-DBLα-CIDRα1.4-DBLβ) (Plasmodium falciparum HB3 (HB3VAR03), strain)
T2 chain: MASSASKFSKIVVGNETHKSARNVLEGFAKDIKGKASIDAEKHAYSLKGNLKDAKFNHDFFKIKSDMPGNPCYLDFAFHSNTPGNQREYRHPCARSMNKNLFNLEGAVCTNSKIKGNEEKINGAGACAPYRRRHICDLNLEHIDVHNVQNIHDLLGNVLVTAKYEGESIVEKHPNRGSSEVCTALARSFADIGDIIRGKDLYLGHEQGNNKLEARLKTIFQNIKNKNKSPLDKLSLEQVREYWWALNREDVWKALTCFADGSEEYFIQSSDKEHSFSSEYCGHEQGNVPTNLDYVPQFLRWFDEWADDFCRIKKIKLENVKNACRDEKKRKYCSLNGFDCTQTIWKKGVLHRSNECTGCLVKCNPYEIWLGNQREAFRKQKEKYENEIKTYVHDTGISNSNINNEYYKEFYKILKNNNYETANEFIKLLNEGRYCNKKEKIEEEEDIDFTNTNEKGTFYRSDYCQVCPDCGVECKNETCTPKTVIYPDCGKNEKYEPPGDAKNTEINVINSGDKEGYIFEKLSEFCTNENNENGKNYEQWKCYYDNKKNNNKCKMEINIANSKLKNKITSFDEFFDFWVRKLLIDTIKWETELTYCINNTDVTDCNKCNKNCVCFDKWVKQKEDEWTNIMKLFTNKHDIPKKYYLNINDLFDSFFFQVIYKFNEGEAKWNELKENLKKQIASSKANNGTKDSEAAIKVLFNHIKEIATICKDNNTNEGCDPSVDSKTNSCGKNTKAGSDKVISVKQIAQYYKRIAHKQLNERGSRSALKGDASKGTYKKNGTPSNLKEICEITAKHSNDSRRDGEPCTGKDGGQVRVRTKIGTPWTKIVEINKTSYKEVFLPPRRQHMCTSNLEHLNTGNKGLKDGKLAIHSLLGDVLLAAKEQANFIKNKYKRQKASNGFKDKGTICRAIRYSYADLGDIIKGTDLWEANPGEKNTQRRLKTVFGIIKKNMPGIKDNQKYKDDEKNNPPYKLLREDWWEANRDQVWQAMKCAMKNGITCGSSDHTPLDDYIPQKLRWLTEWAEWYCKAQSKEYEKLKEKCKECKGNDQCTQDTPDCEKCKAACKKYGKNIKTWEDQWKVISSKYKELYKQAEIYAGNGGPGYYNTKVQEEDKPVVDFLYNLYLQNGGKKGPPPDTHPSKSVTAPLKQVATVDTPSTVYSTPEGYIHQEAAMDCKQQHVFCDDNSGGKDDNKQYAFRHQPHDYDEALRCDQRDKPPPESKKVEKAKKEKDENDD

T3: three-domain protein of IT4VAR22 PfEMP1 (NTSA-DBLα-CIDRα1.7-DBLβ) (Plasmodium falciparum IT4 (IT4VAR22), strain)
T3 chain: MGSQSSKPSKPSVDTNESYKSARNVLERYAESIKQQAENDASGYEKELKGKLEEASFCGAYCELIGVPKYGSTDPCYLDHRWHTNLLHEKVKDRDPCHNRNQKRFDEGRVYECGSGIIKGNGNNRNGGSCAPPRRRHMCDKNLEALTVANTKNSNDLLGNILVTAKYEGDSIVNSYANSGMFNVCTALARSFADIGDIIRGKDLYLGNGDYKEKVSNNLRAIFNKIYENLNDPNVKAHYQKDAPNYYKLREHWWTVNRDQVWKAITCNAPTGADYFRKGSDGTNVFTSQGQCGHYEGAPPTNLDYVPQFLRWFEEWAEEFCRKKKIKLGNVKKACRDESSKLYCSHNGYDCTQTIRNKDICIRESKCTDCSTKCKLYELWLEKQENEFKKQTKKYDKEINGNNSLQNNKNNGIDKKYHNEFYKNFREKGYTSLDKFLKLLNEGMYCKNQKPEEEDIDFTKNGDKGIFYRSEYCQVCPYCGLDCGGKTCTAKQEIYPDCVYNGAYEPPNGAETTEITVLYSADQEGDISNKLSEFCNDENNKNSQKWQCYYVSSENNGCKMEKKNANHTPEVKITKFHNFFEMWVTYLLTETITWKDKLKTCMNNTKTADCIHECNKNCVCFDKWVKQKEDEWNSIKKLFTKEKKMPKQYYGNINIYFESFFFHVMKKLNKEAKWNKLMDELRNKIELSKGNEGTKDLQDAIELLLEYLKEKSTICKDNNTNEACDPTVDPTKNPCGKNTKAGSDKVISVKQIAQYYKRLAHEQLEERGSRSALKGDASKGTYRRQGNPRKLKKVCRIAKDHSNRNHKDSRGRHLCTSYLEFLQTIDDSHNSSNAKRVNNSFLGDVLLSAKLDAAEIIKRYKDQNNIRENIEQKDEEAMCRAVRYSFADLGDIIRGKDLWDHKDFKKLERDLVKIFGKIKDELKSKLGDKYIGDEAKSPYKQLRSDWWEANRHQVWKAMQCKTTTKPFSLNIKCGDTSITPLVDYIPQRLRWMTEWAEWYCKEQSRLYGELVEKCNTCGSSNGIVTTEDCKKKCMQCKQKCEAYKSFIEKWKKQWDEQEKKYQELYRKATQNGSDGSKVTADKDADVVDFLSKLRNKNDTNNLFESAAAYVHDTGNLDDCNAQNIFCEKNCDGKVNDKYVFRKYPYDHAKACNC


Assays:
[1] = target: native HB3VAR03 PfEMP1 (CIDRα1.4) on P. falciparum-infected erythrocytes (Plasmodium falciparum HB3 (HB3VAR03), UniProt A0A0L7KL67, strain); experiment: flow cytometry on cells
[2] = target: native IT4VAR18 PfEMP1 (CIDRα1.6) on P. falciparum-infected erythrocytes (Plasmodium falciparum, clone IT4 …, UniProt A3R6S2, strain); experiment: flow cytometry on cells
[3] = target: native IT4VAR19 PfEMP1 (CIDRα1.1) on P. falciparum-infected erythrocytes (Plasmodium falciparum, clone IT4 …, UniProt A3R6S3, strain); experiment: flow cytometry on cells
[4] = target: T1, single CIDRα1.4 domain of HB3VAR03 …; experiment: crystal structure
[5] = target: T2, three-domain protein of HB3VAR03 PfEMP1 …; experiment: cryo-EM structure
[6] = target: T3, three-domain protein of IT4VAR22 PfEMP1 …; experiment: cryo-EM structure

Binder	binding result [1]	binding result [2]	binding result [3]	binding result [4]	binding result [5]	binding result [6]
mAb C7, recombinant IgG1 (antibody, V domains shown) VH: EVQLVESGGGLAQPGGSLRLSCAASGFTFRDHGMTWVRQVSGKGLEWLSYITAGSKMSYYSDSVRGRFTISRDNAKNSLYLQMNGLTDEDSAIYYCVKGGGNCPSDTCYPSGYFGLDVWGQGTTVTVSS VL: QSELTQPPSMSVSPGQTAMITCSMNKYSYISWYQQRPGQSPALVIYQDTRRPSGIPERFSGSNSENTAILTITGTRDLDEADYFCQGWDSNVKAVLFGGGTKLTVL	binds	binds	no binding (tested: 100 μg/mL)			
C7 Fab (Fab, V domains shown) VH: EVQLVESGGGLAQPGGSLRLSCAASGFTFRDHGMTWVRQVSGKGLEWLSYITAGSKMSYYSDSVRGRFTISRDNAKNSLYLQMNGLTDEDSAIYYCVKGGGNCPSDTCYPSGYFGLDVWGQGTTVTVSS VL: QSELTQPPSMSVSPGQTAMITCSMNKYSYISWYQQRPGQSPALVIYQDTRRPSGIPERFSGSNSENTAILTITGTRDLDEADYFCQGWDSNVKAVLFGGGTKLTVL				binds	binds	binds
mAb C74, recombinant IgG1 (antibody, V domains shown) VH: EVQLVQSGGALVRPGGSLRLSCAASGFDFSDFEMNWVRQAPGKGLEWISYISKISAASFYADSVEGRFTISRDNTKNLLWLEMTSLRDEDTAVYYCARDLPGYLERVFDLWGQGTLVSVSS VL: EIVLTQSPATLSLSPGEDATLSCRASQSVGSALAWYQHRPGQSPRLLIYDASTRATGIPARFSGSGSGTEFTLTVSSLTSEDFAVYYCQEYKNSVPPTWTFGQGTKVEIK	binds	binds	no binding (tested: 100 μg/mL)			
C74 Fab (Fab, V domains shown) VH: EVQLVQSGGALVRPGGSLRLSCAASGFDFSDFEMNWVRQAPGKGLEWISYISKISAASFYADSVEGRFTISRDNTKNLLWLEMTSLRDEDTAVYYCARDLPGYLERVFDLWGQGTLVSVSS VL: EIVLTQSPATLSLSPGEDATLSCRASQSVGSALAWYQHRPGQSPRLLIYDASTRATGIPARFSGSGSGTEFTLTVSSLTSEDFAVYYCQEYKNSVPPTWTFGQGTKVEIK						binds
